Each block holds one molecule with its values, some of them ahead of it.
Experiments:
[1] = fluorescein alone, single i.v. injection, analysis of literature data (Chahal et al.); cited from earlier work
[2] = biological target: T1, Mouse serum albumin (Mouse, UniProt P07724 25-608); test: biolayer interferometry, cross reactivity pattern (graded strength of binding)
T1 construct: also called MSA

[3] = biological target: T2, Rat serum albumin (Rat, UniProt P02770 25-608); test: as above
T2 construct: also called RSA
T2 sequence (P02770 25-608 limits assumed): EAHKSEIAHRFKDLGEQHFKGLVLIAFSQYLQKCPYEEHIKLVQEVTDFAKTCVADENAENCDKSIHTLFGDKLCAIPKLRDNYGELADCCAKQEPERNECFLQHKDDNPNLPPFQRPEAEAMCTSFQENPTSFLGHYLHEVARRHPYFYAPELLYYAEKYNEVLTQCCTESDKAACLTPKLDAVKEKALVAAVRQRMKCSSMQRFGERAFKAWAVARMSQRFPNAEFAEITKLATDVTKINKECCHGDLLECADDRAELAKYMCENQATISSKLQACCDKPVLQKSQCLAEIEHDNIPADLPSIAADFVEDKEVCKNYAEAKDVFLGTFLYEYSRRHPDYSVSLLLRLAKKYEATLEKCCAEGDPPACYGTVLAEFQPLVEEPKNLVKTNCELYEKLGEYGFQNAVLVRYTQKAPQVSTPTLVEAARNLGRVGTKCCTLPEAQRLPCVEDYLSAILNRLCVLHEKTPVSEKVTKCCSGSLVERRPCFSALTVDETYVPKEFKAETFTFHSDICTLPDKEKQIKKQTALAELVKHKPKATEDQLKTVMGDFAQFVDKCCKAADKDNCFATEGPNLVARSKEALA

[4] = biological target: T3, Cynomolgus monkey serum albumin (Cynomolgus monkey, UniProt A2V9Z4 25-608); test: as above
T3 construct: also called CSA
T3 sequence (A2V9Z4 25-608 limits assumed): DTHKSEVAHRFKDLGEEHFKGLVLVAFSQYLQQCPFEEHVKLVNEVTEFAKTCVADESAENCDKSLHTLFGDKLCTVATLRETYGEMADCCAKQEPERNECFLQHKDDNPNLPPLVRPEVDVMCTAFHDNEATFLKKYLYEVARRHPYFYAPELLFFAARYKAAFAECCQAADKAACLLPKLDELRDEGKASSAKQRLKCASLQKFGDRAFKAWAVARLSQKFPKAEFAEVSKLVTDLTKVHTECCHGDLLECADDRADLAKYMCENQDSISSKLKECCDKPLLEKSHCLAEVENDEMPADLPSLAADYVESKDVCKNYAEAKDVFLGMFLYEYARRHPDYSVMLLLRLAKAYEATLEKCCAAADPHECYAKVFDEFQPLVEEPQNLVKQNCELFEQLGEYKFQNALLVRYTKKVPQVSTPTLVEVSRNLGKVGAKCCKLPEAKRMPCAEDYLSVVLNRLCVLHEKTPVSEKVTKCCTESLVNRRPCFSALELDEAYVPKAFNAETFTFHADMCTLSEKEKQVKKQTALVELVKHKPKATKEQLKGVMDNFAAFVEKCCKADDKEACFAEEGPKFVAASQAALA

[5] = biological target: T4, Rabbit serum albumin (Rabbit, UniProt P49065 25-608); test: biolayer interferometry, cross reactivity on albumins of different species; legend: '-' symbol refers to an absence of detectable binding
T4 construct: also called RabSA; RabSa
T4 sequence (P49065 25-608 limits assumed): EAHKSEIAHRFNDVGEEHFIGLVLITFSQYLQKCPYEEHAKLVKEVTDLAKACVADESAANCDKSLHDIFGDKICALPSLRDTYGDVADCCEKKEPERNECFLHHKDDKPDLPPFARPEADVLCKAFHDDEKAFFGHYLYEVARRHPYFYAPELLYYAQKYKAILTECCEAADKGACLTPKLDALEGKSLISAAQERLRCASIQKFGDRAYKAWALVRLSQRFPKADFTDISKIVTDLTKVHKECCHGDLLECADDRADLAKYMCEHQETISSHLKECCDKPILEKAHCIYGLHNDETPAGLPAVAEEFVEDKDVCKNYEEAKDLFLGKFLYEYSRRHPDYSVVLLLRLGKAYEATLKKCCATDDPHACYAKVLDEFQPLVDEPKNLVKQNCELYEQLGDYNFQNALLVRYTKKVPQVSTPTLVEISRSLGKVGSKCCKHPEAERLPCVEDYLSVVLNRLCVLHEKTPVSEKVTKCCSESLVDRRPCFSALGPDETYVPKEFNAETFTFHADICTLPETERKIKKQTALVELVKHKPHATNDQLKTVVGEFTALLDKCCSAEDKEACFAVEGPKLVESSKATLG

[6] = biological target: T5, human serum albumin (human, UniProt P02768 25-609, biotinylated (sites not given) in the biolayer interferometry of Example 1); test: biolayer interferometry (octet red96); biotinylated HSA on streptavidin biosensors, Nanofitin 15.6-1000 nM
T5 construct: Biotinylated HSA immobilised on streptavidin biosensors; also called HSA

[7] = biological target: T6, human serum albumin Domain I (aa1-197) (human, UniProt P02768 25-221); test: biolayer interferometry, His-tagged F06 on Ni-NTA biosensors, albumin domain at 250 nM, response at 180 s
T6 construct: range 1-197; Domain III ends at 585, so they probably count on mature albumin (585 residues) and not on the precursor entry
Description: (§1) The albumin is described as having three domains, dubbed domain I, II and III. Interaction of the albumin with the FcRn receptor involves domain I and III. Domain I (aa1-197), domain II (aa189-385), and domain III (aa381-585) and Domain I-II (aa1-385) were obtained from Albumin Bioscience. Interaction of the anti-albumin Nanofitins with the different domains was investigated by biolayer interferometry according to the following procedure. […] The sensors were then allowed to equilibrate for 60 sec in protein free blocking buffer (Thermo Scientific) supplemented with 0.002% of tween20.

[8] = biological target: T7, human serum albumin domain III (aa381-585) (human, UniProt P02768 405-609); test: as above
T7 construct: range 381-585; The residue numbers probably count on mature albumin (585 residues)
Description: as §1

T1 sequence (P07724 25-608 limits assumed): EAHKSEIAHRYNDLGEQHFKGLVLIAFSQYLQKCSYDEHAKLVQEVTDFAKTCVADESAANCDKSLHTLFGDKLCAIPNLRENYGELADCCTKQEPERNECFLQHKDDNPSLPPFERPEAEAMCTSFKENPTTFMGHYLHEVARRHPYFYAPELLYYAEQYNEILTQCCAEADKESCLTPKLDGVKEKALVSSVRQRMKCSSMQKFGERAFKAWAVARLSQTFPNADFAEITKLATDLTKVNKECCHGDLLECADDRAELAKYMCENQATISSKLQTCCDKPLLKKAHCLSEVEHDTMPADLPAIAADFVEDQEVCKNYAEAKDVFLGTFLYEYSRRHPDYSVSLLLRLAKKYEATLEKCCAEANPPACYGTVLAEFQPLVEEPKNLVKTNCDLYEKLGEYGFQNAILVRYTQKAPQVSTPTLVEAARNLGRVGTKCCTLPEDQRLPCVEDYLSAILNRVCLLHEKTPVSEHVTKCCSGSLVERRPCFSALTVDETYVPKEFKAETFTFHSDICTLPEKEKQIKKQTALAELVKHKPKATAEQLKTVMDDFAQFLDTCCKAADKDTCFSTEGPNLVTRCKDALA

Molecule: O=C1OC2(c3ccc(O)cc3Oc3cc(O)ccc32)c2ccccc21 [Fluorescein]
t1/2 in mouse serum [1]: about 8 min

binding result [2]: binds | binding result [3]: binds | binding result [4]: binds | binding result [5]: no binding
B1: Nanofitin B11 (designed binder)
chain: VKVKFWPRGEEKVVDTSKIAWVLRADKTVMFKYDDNGKKGYGVVLEKDAPKELLDMLARAEREK
notes: Variant of Sac7d; also called anti-albumin Nanofitin

Kd [6]: 8.38 nM | koff [6]: 0.000304 s⁻¹ | binding result [7]: no binding (tested: 250 nM) | binding result [8]: no binding (tested: 250 nM) | binding result [5]: no binding
B2: Nanofitin F06 (designed binder)
chain: VKVKFVFSGEEKEVETSKIKWVLRWGKAVGFKYDDQGKIGYGFVAEKDAPKELLDMLARAEREK
notes: also called anti-albumin Nanofitin

— patent US20240124531A1, “COMPOUNDS AND METHODS FOR EXTENDING HALF LIFE OF BIOMOLECULES” (AFFILOGIC, priority 2021, published 2024)
